Key:
Assay in all cases: Quantitative phosphorylation assay of T33-Sic1ΔC constructs and recombinant substrates
Assay type in all cases: biochemical
Conditions in all cases: Table S2; purified protein substrate; relative values, not divided by [S]
Clb2-Cdk1 = biological target: T1, Clb2-Cdk1 (Saccharomyces cerevisiae, UniProt P00546+P24869)
T1 construct: We purified the four cyclin-Cdk1 complexes from yeast; made in house; host or cells: S. cerevisiae strain DOM0077 (gal-CLB2-TAP, sic1 deleted); Cks1 from bacteria

Clb3-Cdk1 = biological target: T2, Clb3-Cdk1 (Saccharomyces cerevisiae, UniProt P00546+P24870)
T2 construct: We purified the four cyclin-Cdk1 complexes from yeast; made in house; host or cells: S. cerevisiae strain DOM0957 (gal-CLB3-TAP, sic1 deleted); Cks1 from bacteria

Clb5-Cdk1 = biological target: T3, Clb5-Cdk1 (Saccharomyces cerevisiae, UniProt P00546+P30283)
T3 construct: We purified the four cyclin-Cdk1 complexes from yeast; made in house; host or cells: S. cerevisiae strain DOM0076 (gal-CLB5-TAP, sic1 deleted); Cks1 from bacteria

Cln2-Cdk1 = biological target: T4, Cln2-Cdk1 (Saccharomyces cerevisiae, UniProt P00546+P20438)
T4 construct: We purified the four cyclin-Cdk1 complexes from yeast; made in house; host or cells: S. cerevisiae strain DMY305 (galactose-induced); Cks1 from bacteria

Clb2hpm-Cdk1 = biological target: T5, Clb2hpm-Cdk1 (Saccharomyces cerevisiae, UniProt P00546)
T5 construct: made in house; host or cells: S. cerevisiae strain DOM0964 (gal-CLB2hpm-TAP, sic1 deleted); Cks1 from bacteria
Method in brief: (§1)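 Yeast cyclin-Cdk1 complexes (1–10 nM, TAP-purified) phosphorylated 6His-T33-Sic1ΔC (other S/T-P sites mutated to Ala-Ala) or recombinant substrates at 0.5–2 μM, below KM, with 32P-γ-ATP. Initial velocities (≤10% turnover) from two or more time points, SDS-PAGE stopped; relative kcat/KM from v0 ratios.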

Clb3hpm-Cdk1 = biological target: T6, Clb3hpm-Cdk1 (Saccharomyces cerevisiae, UniProt P00546+P24870)
T6 construct: made in house; host or cells: S. cerevisiae strain MK0168 (gal-CLB3hpm-TAP, sic1 deleted); Cks1 from bacteria
Method in brief: as §1

Clb5hpm-Cdk1 = biological target: T7, Clb5hpm-Cdk1 (Saccharomyces cerevisiae, UniProt P00546)
T7 construct: made in house; host or cells: S. cerevisiae strain DOM0963 (gal-CLB5hpm-TAP, sic1 deleted); Cks1 from bacteria
Method in brief: as §1

T1 sequence (P00546 2-298 limits assumed): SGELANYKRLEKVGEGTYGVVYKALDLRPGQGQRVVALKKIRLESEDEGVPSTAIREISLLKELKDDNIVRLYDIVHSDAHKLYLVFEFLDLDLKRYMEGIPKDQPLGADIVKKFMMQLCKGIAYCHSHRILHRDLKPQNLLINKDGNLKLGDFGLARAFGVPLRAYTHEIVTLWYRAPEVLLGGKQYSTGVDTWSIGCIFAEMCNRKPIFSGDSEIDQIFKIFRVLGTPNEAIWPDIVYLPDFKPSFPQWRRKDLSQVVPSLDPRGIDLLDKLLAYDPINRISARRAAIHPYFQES
T1 sequence (P24869 2-491 partner limits assumed): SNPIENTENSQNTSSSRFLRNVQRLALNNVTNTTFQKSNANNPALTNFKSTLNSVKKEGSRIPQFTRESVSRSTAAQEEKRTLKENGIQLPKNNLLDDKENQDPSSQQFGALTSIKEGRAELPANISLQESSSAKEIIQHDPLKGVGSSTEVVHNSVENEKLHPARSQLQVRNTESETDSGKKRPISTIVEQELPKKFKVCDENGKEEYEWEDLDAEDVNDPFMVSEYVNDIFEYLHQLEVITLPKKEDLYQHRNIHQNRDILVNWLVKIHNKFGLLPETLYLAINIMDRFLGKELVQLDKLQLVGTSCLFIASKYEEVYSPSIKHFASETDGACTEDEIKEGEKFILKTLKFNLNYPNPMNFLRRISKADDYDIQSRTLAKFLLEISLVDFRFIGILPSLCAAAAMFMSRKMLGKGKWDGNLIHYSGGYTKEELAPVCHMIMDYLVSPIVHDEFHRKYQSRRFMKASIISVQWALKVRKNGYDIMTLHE
T1 sequence (P20486 whole entry partner): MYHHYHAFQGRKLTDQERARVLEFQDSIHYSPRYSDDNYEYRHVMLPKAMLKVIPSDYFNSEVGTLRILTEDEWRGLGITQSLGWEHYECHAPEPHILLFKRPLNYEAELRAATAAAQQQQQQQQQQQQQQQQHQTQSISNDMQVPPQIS
T5 sequence (P00546 2-298 limits assumed): as the sequence (P00546 2-298 limits assumed) above
T7 sequence (P00546 2-298 limits assumed): as above
T3 sequence (P00546 2-298 limits assumed): as above
T3 sequence (P30283 whole entry partner): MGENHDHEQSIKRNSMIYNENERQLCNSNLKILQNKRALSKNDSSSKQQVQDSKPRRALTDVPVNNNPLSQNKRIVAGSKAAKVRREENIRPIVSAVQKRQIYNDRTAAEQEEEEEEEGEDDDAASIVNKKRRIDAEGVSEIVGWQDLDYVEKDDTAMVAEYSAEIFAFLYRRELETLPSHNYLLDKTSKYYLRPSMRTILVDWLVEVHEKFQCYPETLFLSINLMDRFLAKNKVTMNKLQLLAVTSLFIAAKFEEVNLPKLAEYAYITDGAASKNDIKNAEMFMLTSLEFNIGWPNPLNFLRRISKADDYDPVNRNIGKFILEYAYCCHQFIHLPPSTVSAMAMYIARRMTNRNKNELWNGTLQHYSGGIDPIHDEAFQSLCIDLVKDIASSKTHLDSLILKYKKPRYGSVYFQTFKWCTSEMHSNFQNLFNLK
T3 sequence (P20486 whole entry partner): as the sequence (P20486 whole entry partner) above
T4 sequence (P00546 2-298 limits assumed): as the sequence (P00546 2-298 limits assumed) above
T4 sequence (P20438 whole entry partner): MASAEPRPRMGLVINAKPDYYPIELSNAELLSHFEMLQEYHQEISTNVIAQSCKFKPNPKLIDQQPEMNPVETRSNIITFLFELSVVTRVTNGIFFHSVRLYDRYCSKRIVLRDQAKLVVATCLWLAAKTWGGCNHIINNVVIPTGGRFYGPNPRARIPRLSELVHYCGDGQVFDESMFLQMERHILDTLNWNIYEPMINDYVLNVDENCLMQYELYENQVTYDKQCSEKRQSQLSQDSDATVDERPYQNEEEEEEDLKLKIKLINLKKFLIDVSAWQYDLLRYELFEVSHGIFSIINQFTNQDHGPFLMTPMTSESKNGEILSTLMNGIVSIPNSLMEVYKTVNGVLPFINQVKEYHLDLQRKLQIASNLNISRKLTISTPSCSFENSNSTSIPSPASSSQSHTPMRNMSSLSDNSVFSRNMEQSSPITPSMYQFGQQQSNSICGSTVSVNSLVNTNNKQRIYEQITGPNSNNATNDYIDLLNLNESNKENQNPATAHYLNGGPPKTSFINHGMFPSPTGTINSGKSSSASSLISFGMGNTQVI
T4 sequence (P20486 whole entry partner): as the sequence (P20486 whole entry partner) above
T2 sequence (P00546 2-298 limits assumed): as the sequence (P00546 2-298 limits assumed) above
T2 sequence (P24870 whole entry partner): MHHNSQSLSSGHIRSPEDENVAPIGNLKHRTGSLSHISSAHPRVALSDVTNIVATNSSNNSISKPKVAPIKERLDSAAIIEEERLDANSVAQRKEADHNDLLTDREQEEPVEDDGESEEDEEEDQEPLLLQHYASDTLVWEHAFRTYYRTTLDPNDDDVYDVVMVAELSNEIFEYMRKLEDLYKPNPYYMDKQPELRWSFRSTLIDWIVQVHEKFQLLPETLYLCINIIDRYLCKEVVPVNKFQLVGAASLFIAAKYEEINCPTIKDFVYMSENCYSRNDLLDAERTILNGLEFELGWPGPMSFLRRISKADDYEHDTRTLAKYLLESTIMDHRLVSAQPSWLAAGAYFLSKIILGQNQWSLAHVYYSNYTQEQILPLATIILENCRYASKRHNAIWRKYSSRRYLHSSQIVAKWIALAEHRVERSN
T2 sequence (P20486 whole entry partner): as the sequence (P20486 whole entry partner) above

Row | Molecule | kcat/KM, Clb2 (Clb2-Cdk1) [relative units] | kcat/KM, Clb3 (Clb3-Cdk1) [relative units] | kcat/KM, Clb5 (Clb5-Cdk1) [relative units] | kcat/KM, Cln2 (Cln2-Cdk1) [relative units] | kcat/KM, Clb2hpm (Clb2hpm-Cdk1) [relative units] | kcat/KM, Clb3hpm (Clb3hpm-Cdk1) [relative units] | kcat/KM, Clb5hpm (Clb5hpm-Cdk1) [relative units]
1 | FIN1: spindle-stabilizing protein, tested as Cdk1 substrate (protein, UniProt Q03898 1-291, looked up) Filament protein FIN1: MSNKSNRRSLRDIGNTIGRNNIPSDKDNVFVRLSMSPLRTTSQKEFLKPPMRISPNKTDGMKHSIQVTPRRIMSPECLKGYVSKETQSLDRPQFKNSNKNVKIQNSDHITNIIFPTSPTKLTFSNENKIGGDGSLTRIRARFKNGLMSPERIQQQQQQHILPSDAKSNTDLCSNTELKDAPFENDLPRAKLKGKNLLVELKKEEEDVGNGIESLTKSNTKLNSMLANEGKIHKASFQKSVKFKLPDNIVTEETVELKEIKDLLLQMLRRQREIESRLSNIELQLTEIPKHK | 12.43 | 10.96 | 23.02 | 1.800 | 14.08 | 7.488 | 3.651
2 | CDC6: replication factor and pre-RC component, tested as Cdk1 substrate (protein, UniProt P09119 1-513, looked up) Cell division control protein …: MSAIPITPTKRIRRNLFDDAPATPPRPLKRKKLQFTDVTPESSPEKLQFGSQSIFLRTKALLQKSSELVNLNSSDGALPARTAEYEQVMNFLAKAISEHRSDSLYITGPPGTGKTAQLDMIIRQKFQSLPLSLSTPRSKDVLRHTNPNLQNLSWFELPDGRLESVAVTSINCISLGEPSSIFQKIFDSFQDLNGPTLQIKNMQHLQKFLEPYHKKTTFVVVLDEMDRLLHANTSETQSVRTILELFLLAKLPTVSFVLIGMANSLDMKDRFLSRLNLDRGLLPQTIVFQPYTAEQMYEIVIQKMSSLPTIIFQPMAIKFAAKKCAGNTGDLRKLFDVLRGSIEIYELEKRFLLSPTRGSLNSAQVPLTPTTSPVKKSYPEPQGKIGLNYIAKVFSKFVNNNSTRTRIAKLNIQQKLILCTIIQSLKLNSDATIDESFDHYIKAITKTDTLAPLQRNEFLEICTILETCGLVSIKKTKCKGKTKRFVDKIDVDLDMREFYDEMTKISILKPFLH | 0.078 | 2.268 | 2.898 | 0.084 | 1.688 | 0.350 | 0.138
3 | CDH1: protein purified using the baculovirus system, tested as Cdk1 substrate (protein, UniProt P53197 1-566, looked up) APC/C activator protein CDH1: MSTNLNPFMNNTPSSSPLKGSESKRVSKRPISSSSSASLLSSPSRRSRPSTVYGDRYIPSRTDIDFNSIVSISSMASVPALNPSSTEDQVEYQKERQAHETYNTLLKNELFGEMLSKDTVGSESSIDRIKNTRPSTRGNVHAENTTRHGYELERVSTPPPEAAGLEEFSPHSTPVTPRRLFTSQQDEITRPSSNSVRGASLLTYQQRKGRRLSAASLLQSQFFDSMSPVRPDSKQLLLSPGKQFRQIAKVPYRVLDAPSLADDFYYSLIDWSSTDVLAVALGKSIFLTDNNTGDVVHLCDTENEYTSLSWIGAGSHLAVGQANGLVEIYDVMKRKCIRTLSGHIDRVACLSWNNHVLTSGSRDHRILHRDVRMPDPFFETIESHTQEVCGLKWNVADNKLASGGNDNVVHVYEGTSKSPILTFDEHKAAVKAMAWSPHKRGVLATGGGTADRRLKIWNVNTSIKMSDIDSGSQICNMVWSKNTNELVTSHGYSKYNLTLWDCNSMDPIAILKGHSFRVLHLTLSNDGTTVVSGAGDETLRYWKLFDKPKAKVQPNSLIFDAFNQIR | 0.035 | 0.024 | 0.025 | 0.016 | 0.023 | 0.008 | 0.006
4 | FAR1: Cdk1 inhibitor Far1, tested as Cdk1 substrate (protein, UniProt P21268 1-830, looked up) Cyclin-dependent kinase …: MKTPTRVSFEKKIHTPPSGDRDAERSPPKKFLRGLSGKVFRKTPEFKKQQMPTFGYIEESQFTPNLGLMMSKRGNIPKPLNLSKPISPPPSLKKTAGSVASGFSKTGQLSALQSPVNITSSNKYNIKATNLTTSLLRESISDSTTMCDTLSDINLTVMDEDYRIDGDSYYEEDSPTFMISLERNIKKCNSQFSPKRYIGEKCLICEESISSTFTGEKVVESTCSHTSHYNCYLMLFETLYFQGKFPECKICGEVSKPKDKDIVPEMVSKLLTGAGAHDDGPSSNMQQQWIDLKTARSFTGEFPQFTPQEQLIRTADISCDGFRTPRLSNSNQFEAVSYLDSPFLNSPFVNKMATTDPFDLSDDEKLDCDDEIDESAAEVWFSKTGGEHVMVSVKFQEMRTSDDLGVLQDVNHVDHEELEEREKEWKKKIDQYIETNVDKDSEFGSLILFDKLMYSDDGEQWVDNNLVILFSKFLVLFDFEEMKILGKIPRDQFYQVIKFNEDVLLCSLKSTNIPEIYLRFNENCEKWLLPKWKYCLENSSLETLPLSEIVSTVKELSHVNIIGALGAPPDVISAQSHDSRLPWKRLHSDTPLKLIVCLNLSHADGELYRKRVLKSVHQILDGLNTDDLLGIVVVGRDGSGVVGPFGTFIGMINKNWDGWTTFLDNLEVVNPNVFRDEKQQYKVTLQTCERLASTSAYVDTDDHIATGYAKQILVLNGSDVVDIEHDQKLKKAFDQLSYHWRYEISQRRMTPLNASIKQFLEELHTKRYLDVTLRLPQATFEQVYLGDMAAGEQKTRLIMDEHPHSSLIEIEYFDLVKQQRIHQTLEVPNL | 0.029 | 0.031 | 0.115 | 0.042 | 0.033 | 0.008 | 0.003
5 | YHP1: purified yeast protein tested as Cdk1 substrate (protein, UniProt Q04116 1-353, looked up) Homeobox protein YHP1: MESRNTVLPSLPNIITGTSNSPFQLHTLPNTNFPSDDQGDIRLPPLAASAHIVRPVVNIYKSPCDEERPKRKSPQAVDFLSQRVTTSMTPLSKPKKLSSHSPFTPTVRVCSKEQPPQSMHSYKKVNILTPLSAAKAVLTPTTRKEKKRSFAFITHSQETFPKKEPKIDNARLARRKRRRTSSYELGILQTAFDECPTPNKAKRIELSEQCNMSEKSVQIWFQNKRQAAKKHKNSGNTSHCKVHSNDSMSMISYSDAALEITSTPTSTKEAITAELLKTSPANTSSIFEDHHITPCKPGGQLKFHRKSVLVKRTLSNTGHSEIIKSPKGKENRLKFNAYERKPLGEVDLNSFKN | 0.385 | 0.066 | 0.020 | 0.524 | 0.046 | 0.009 | 0.002
6 | EXO84: purified yeast protein tested as Cdk1 substrate (protein, UniProt P38261 1-753, looked up) Exocyst complex component …: MVEFSLKKARNNWKHVKKSASSPAKQKTPPSPAKPKQKTKKNPYSDLKDPATSYTLPTINARERSRVATSMQRRLSIHNTNYAPPTLDYSMPLPDMPNMIVPNDNVDSSHNNSSFTTENESVSSKGPSNSLNLSTADLSLNDSSYNKVPARSAMRNTVNPSGSNDPFNNSTSLRKMLANPHFNAKDFVHDKLGNASAITIDKFTSNLTDLSIQVQEEVKLNINKSYNEIMTVNNDLNVAMLELKRVRANINDLNEVLDQCTKIAEKRLQLQDQIDQERQGNFNNVESHSNSPALLPPLKAGQNGNLMRRDRSSVLILEKFWDTELDQLFKNVEGAQKFINSTKGRHILMNSANWMELNTTTGKPLQMVQIFILNDLVLIADKSRDKQNDFIVSQCYPLKDVTVTQEEFSTKRLLFKFSNSNSSLYECRDADECSRLLDVIRKAKDDLCDIFHVEEENSKRIRESFRYLQSTQQTPGRENNRSPNKNKRRSMGGSITPGRNVTGAMDQYLLQNLTLSMHSRPRSRDMSSTAQRLKFLDEGVEEIDIELARLRFESAVETLLDIESQLEDLSERISDEELMLLNLISLKIEQRREAISSKLSQSILSSNEIVHLKSGTENMIKLGLPEQALDLFLQNRSNFIQDLILQIGSVDNPTNYLTQLAVIRFQTIKKTVEDFQDIFKELGAKISSILVDWCSDEVDNHFKLIDKQLLNDEMLSPGSIKSSRKQIDGLKAVGLDFVYKLDEFIKKNSDKIR | 0.074 | 0.031 | 0.019 | 0.084 | 0.062 | 0.014 | 0.006

From publication PMC3115021, “Dynamics of Cdk1 Substrate Specificity during the Cell Cycle” (Molecular Cell, 2011)
